These results are taken from patent publication US20100183520A1.

This assay has as its target UNC5B netrin-1 receptor on mouse leukocytes / CD4+ T cells (mouse) (UniProt Q8K1S3). As to the kind of experiment: cell-based or functional assay.
Chain of UniProt Q8K1S3 (Q8K1S3 27-945): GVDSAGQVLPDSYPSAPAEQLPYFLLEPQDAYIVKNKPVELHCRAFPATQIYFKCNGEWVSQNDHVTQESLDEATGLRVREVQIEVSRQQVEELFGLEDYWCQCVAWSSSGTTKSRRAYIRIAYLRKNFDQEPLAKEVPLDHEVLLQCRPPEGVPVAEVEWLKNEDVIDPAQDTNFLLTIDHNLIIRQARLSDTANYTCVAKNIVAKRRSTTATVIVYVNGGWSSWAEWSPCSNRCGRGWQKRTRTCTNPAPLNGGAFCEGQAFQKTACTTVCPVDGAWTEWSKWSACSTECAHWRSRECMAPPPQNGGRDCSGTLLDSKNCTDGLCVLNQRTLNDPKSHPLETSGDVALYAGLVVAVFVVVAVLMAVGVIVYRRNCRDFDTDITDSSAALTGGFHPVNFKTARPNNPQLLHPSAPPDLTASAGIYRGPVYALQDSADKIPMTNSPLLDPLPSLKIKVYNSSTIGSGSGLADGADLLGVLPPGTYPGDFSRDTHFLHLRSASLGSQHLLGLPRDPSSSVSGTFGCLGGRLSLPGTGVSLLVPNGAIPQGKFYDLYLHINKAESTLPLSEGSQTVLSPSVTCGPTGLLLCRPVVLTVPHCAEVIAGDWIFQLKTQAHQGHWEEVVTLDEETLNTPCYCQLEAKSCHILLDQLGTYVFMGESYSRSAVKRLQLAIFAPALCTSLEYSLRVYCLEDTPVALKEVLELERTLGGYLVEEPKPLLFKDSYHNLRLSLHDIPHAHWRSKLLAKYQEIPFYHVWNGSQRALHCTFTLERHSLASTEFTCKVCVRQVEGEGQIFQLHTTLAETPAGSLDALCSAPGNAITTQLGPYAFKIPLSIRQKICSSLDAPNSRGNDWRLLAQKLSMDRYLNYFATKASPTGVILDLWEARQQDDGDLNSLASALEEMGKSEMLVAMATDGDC

“recombinant netrin-1 (R&D Systems) (ligand)” gave an inhibition of anti-CD3 stimulated cytokine production in CD4+CD25- T cells: netrin-1 concentration with maximal inhibition of 500 ng/mL and an inhibition of anti-CD3 stimulated cytokine production in CD4+CD25- T cells: netrin-1 concentration with minimal effect of 100 ng/mL.
